Target: the molecule itself
Experiment: SEC

B1: S-OPA1 (short S1 isoform of splice form 1 human OPA1), wild type (natural protein, UniProt O60313 196-960, looked up)
chain: TDRGSESDKHFRKVSDKEKIDQLQEELLHTQLKYQRILERLEKENKELRKLVLQKDDKGIHHRKLKKSLIDMYSEVLDVLSDYDASYNTQDHLPRVVVVGDQSAGKTSVLEMIAQARIFPRGSGEMMTRSPVKVTLSEGPHHVALFKDSSREFDLTKEEDLAALRHEIELRMRKNVKEGCTVSPETISLNVKGPGLQRMVLVDLPGVINTVTSGMAPDTKETIFSISKAYMQNPNAIILCIQDGSVDAERSIVTDLVSQMDPHGRRTIFVLTKVDLAEKNVASPSRIQQIIEGKLFPMKALGYFAVVTGKGNSSESIEAIREYEEEFFQNSKLLKTSMLKAHQVTTRNLSLAVSDCFWKMVRESVEQQADSFKATRFNLETEWKNNYPRLRELDRNELFEKAKNEILDEVISLSQVTPKHWEEILQQSLWERVSTHVIENIYLPAAQTMNSGTFNTTVDIKLKQWTDKQLPNKAVEVAWETLQEEFSRFMTEPKGKEHDDIFDKLKEAVKEESIKRHKWNDFAEDSLRVIQHNALEDRSISDKQQWDAAIYFMEEALQARLKDTENAIENMVGPDWKKRWLYWKNRTQEQCVHNETKNELEKMLKCNEEHPAYLASDEITTVRKNLESRGVEVDPSLIKDTWHQVYRRHFLKTALNHCNLCRRGFYYYQRHFVDSELECNDVVLFWRIQRMLAITANTLRQQLTNTEVRRLEKNVKEVLEDFAEDGEKKIKLLTGKRVQLAEDLKKVREIQEKLDAFIEALHQEK
  stoichiometry N: 2
